These results are taken from patent publication EP2717940B1.

The target in assay [1] is chemokine (C-C motif) receptor 5 (CCR5) (human) (UniProt P51681). Briefly: cell-based or functional assay.
The target is the same in assay [2]. Briefly: in vitro depletion: blood of a healthy donor passed through a column with biotinylated RANTES coupled matrix, flow cytometry for CCR1, 3 or 5-expressing cells.
Assay [3] has as its target T1, chemokine (C-C motif) receptor 1 (CCR1) (human) (UniProt P32246).
T1 sequence (looked up): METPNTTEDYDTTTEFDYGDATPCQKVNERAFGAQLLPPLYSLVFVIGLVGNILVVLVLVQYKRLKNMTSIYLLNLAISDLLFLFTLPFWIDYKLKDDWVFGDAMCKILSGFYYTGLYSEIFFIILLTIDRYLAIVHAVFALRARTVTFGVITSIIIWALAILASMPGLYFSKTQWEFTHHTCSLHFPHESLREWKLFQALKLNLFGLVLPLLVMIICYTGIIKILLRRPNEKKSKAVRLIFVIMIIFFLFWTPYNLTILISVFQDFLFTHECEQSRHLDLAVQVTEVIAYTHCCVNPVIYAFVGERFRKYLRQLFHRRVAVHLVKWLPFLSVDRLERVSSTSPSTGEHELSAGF
The description is as above.

Assay [4] concerns the target T2, chemokine (C-C motif) receptor 3 (CCR3) (human) (UniProt P51677).
T2 sequence (looked up): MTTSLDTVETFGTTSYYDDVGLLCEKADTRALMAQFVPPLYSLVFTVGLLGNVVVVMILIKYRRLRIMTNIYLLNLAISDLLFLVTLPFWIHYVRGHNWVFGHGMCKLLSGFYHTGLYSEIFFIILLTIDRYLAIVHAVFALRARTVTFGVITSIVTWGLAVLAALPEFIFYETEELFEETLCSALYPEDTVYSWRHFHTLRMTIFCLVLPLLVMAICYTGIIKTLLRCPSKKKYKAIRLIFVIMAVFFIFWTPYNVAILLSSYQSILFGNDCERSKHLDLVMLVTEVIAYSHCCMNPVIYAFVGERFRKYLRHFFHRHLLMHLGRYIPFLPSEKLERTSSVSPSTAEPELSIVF
The assay is described as above.

Assay [5] deals with chemokine (C-C motif) receptor 2 (CCR2) on peripheral blood cells (human) (UniProt P41597). The assay is described as follows: flow cytometry, biotinylated chemokine (1 µM) on blood cells of adiposis dolorosa patients, CD19 positive cells, detected with fluorophore conjugated streptavidin.
For assay [6] the target is unchanged. The assay is described as follows: in vitro depletion: blood of three healthy donors passed through a column with bMCP-1 coupled streptavidin Sepharose matrix, flow cytometry before and after. On the technique in general: Flow cytometry measures light scatter and fluorescence of single cells or particles in a stream.
For a further assay, the target named is hCCR2b (human) (UniProt P41597). Briefly: cell-based or functional assay.
Chain of hCCR2b (human) (P41597 other isoform, or with tags, fused parts or gaps): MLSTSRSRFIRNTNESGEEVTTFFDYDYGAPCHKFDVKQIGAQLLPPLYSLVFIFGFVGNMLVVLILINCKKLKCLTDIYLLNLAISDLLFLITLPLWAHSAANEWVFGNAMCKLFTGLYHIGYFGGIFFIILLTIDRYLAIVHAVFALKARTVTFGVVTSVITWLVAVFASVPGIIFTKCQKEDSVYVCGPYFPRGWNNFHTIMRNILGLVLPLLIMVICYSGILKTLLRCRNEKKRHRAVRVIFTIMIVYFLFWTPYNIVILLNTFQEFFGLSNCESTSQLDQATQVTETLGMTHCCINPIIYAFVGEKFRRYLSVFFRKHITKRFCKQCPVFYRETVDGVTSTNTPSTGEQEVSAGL

Chain of chemokine (C-C motif) receptor 2 (CCR2) on peripheral blood cells (human) (P41597 whole entry): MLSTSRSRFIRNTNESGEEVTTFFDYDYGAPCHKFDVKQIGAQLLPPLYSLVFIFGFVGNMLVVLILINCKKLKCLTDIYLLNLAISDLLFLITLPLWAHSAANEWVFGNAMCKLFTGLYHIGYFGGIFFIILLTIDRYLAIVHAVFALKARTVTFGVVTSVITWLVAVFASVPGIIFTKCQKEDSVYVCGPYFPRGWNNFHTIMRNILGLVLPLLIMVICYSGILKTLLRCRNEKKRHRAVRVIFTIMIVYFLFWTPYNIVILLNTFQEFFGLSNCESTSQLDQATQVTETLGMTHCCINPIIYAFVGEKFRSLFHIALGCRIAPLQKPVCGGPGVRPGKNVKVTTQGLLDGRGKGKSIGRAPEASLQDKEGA
Chain of UniProt P13501 (P13501 other isoform, or with tags, fused parts or gaps): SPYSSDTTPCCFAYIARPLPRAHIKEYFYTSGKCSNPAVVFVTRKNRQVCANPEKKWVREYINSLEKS
Chain of chemokine (C-C motif) receptor 5 (CCR5) (human) (P51681 whole entry): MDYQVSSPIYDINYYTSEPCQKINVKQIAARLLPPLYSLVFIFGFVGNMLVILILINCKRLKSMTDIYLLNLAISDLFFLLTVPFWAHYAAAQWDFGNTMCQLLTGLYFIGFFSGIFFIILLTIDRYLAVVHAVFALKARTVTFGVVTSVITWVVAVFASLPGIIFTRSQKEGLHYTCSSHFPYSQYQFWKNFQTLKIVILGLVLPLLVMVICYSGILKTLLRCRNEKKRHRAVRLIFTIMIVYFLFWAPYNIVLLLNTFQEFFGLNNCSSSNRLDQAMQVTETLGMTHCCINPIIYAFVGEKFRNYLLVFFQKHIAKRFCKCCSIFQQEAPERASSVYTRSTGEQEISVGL

In turn, “biotinRANTES (CCL5): RANTES derivatised at the ε-amino side chain functionality of Lys(67) with Biotin (TFA salt) (from UniProt P13501 24-91) (ligand)” returned an EC50, agonist activity in an Aequorin assay in assay [1] of 0.5 nM. In addition, the reduction of chemokine receptor-expressing cells by the column in assay [2], in assay [3] and in assay [4] was 20% throughout.
“biotinylated MCP1 (bMCP1) (from UniProt P13500 24-99) (ligand)” returned a percent of B cells that bind in assay [5] of 65%. This substance also displayed a remaining levels of monocytes after column passage in assay [6] of 20 to 30%.
Turning to “recombinant native MCP-1 (from UniProt P13500 24-99) (ligand)”, in the assay with hCCR2b (human), the EC50, agonist activity in an Aequorin assay came out at 3.1 nM.
In turn, “recombinant native MCP-2 (from UniProt P80075 24-99) (ligand)” showed an EC50, activity (partial agonist) in an Aequorin assay in the assay with hCCR2b (human) of 23.5 nM.
